Paper PMC2151181 (The Journal of Cell Biology, 1999)

Molecular target: SNARE core complex (synaptobrevin-II 1–96, syntaxin-1A 180–262, SNAP-25A 1–83, SNAP-25A 130–206) (rat, UniProt P63045;P32851;P60881-2)
Assay: native gel or EMSA

B1: synaptotagmin III C2A-C2B, residues 295–569 (domain or fragment)
chain: APCGRISFALRYLYGSDHLVVRILQALDLPAKDSNGFSDPYVKIYLLPDRKKKFQTKVHRKTLNPIFNETFQFSVPLAELAQRKLHFSVYDFDRFSRHDLIGQVVLDNLLELAEQPPDRPLWRDILEGGSEKADLGELNFSLCYLPTAGRLTVTIIKASNLKAMDLTGFSDPYVKASLISEGRRLKKRKTSIKKNTLNPTYNEALVFDVAPESVENVGLSIAVVDYDCIGHNEVIGVCRVGPEAADPHGREHWAEMLANPRKPVEHWHQLVEEKT
- binding result: binds
